Our source for the Kd values is patent publication US10766960 (dated 2020).

Assay in all cases: SPR
A general note: In SPR one partner is held on a chip, and binding of the other changes the refractive index at the surface.

One assay deals with T1, FcgRIIa R (human, UniProt P12318).
T1 chain: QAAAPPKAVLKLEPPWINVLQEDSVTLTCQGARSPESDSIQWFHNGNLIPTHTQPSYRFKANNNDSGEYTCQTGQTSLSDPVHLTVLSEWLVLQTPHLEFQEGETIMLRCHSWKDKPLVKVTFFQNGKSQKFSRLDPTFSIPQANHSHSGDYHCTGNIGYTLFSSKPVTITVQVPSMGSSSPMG

In the next assay the target is FcgRIIIa V (human, UniProt P08637).
Chain of FcgRIIIa V (P08637 17-208 F176V): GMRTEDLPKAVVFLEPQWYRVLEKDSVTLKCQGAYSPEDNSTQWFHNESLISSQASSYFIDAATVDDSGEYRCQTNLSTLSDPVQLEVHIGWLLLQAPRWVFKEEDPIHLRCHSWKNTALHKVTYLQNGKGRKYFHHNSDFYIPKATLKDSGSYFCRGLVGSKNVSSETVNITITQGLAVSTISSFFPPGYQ
For a further assay, the target named is T2, FcgRIIa H (human, UniProt P12318).
T2 chain: T1 chain with R134H

The next assay has as its target T3, FcgRIIb (human, UniProt P31994).
T3 chain: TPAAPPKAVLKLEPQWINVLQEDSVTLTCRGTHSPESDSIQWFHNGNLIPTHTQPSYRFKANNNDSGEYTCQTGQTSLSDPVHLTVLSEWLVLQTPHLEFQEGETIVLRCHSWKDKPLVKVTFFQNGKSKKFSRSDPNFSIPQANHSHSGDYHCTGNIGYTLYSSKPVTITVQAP

Another assay deals with T4, FcgRIa (human, UniProt P12314).
T4 chain: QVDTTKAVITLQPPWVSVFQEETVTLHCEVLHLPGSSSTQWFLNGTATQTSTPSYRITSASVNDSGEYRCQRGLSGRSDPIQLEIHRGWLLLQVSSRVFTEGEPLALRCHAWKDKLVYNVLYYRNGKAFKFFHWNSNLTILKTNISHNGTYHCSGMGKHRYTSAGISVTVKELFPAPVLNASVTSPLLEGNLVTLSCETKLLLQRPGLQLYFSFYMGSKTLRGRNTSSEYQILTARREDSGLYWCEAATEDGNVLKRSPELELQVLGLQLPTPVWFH

The target in the next assay is FcgRIIIa F (human, UniProt P08637).
Chain of FcgRIIIa F (P08637 17-208): as the sequence (P08637 17-208 F176V) above, with V160F counted along it

Numbering of substitutions follows the chain as printed.

B1: H240-FA024/H240-FB082/L73-k0 (antibody)
chain 1: QDQLVQSGAEVKKPGASVKVSCKASGFNIKDTYIQWVRQAPGQGLEWMGRIDPLRKQTKYREKFEGRVTITADTSTNTAYMELSSLRSEDTAVYYCVRSGREFDYWGQGTLVTVSSASTKGPSVFPLAPSSKSTSGGTAALGCLVKDYFPEPVTVSWNSGALTSGVHTFPAVLQSSGLYSLSSVVTVPSSSLGTKTYTCNVNHKPSNTKVDKKVEPKSCDKTHTCPPCPAPEYYWGPSVFLFPPKPKDTLMISRTPEVTCVVVDVSDEEPKVKFNWYVDGVEVHNAKTKPREEQYNATYRVVSVLTVLHQDWLNGKEYKCKVSNKALPAPIEKTISKAKGQPREPQVYTLPPSRKEKTKNQVSLTCLVKGFYPSDIAVEWESNGQPENNYKTTPPVLDSDGSFFLYSKLTVDKSRWQQGNVFSCSVMHEALHNRYTQKSLSLSP
chain 2: QDQLVQSGAEVKKPGASVKVSCKASGFNIKDTYIQWVRQAPGQGLEWMGRIDPLRKQTKYREKFEGRVTITADTSTNTAYMELSSLRSEDTAVYYCVRSGREFDYWGQGTLVTVSSASTKGPSVFPLAPSSKSTSGETAALGCLVEDYFPEPVTVSWNSGALTSGVHTFPAVLQSSGLYSLSSVVTVPSSSLGTQTYICNVNHKPSNTKVDKKVEPKSCDKTHTCPPCPAPELLGGPSVFLFPPKPKDTLMISRTPEVTCVVVDVSHEEPEVQFNWYVDGVEVHNAETKPREEQYNSTYRVVSVLTVLHQDWLNGKEYKCKVSNDALPMPIEETISKAKGQPREPQVYTLPPSREEMTKNQVSLTCLVKGFYPSDIAVEWESEGQPENNYKTTPPVLDSDGSFFLYSKLTVDKSRWQQGNVFSCSVMHEALHNHYTQESLSLSP
chain 3: DIQMTQSPSSLSASVGDRVTITCRASQDIHKYIAWYQQKPGQAPRLLIQYTSTLQPGVPSRFSGSGSGTDYTFTISSLQPEDIATYYCLQYEQLRTFGGGTKVEIKRTVAAPSVFIFPPSDEQLKSGTASVVCLLNNFYPREAKVQWKVDNALQSGNSQESVTEQDSKDSTYSLSSTLTLSKADYEKHKVYACEVTHQGLSSPVTKSFNRGEC
In general, Kd refers to the constant that tells how readily two partners part at equilibrium. A high value points to lower affinity. In the case of B1, the Kd in the assay with FcgRIIa R was 240 nM; with FcgRIIIa V, 1.3 nM; with FcgRIIa H, 80 nM; with FcgRIIb it was 1500 nM; with FcgRIa it was 0.13 nM; with FcgRIIIa F it was 4.6 nM.

B2: H240-FA021/H240-FB083/L73-k0 (antibody)
chain 1: B1 chain 1 with K271E, V396K
chain 2: B1 chain 2 with G136E, E137S, S191N, L192F, I198T, N202D, K213T, E383N
chain 3: B1 chain 3
On to B2, for which the Kd with FcgRIIa R was determined as 240 nM; with FcgRIIIa V, 1.4 nM; with FcgRIIa H, 69 nM; with FcgRIIb, 1300 nM; with FcgRIa, 0.078 nM; in the assay with FcgRIIIa F, 3.9 nM.

B3: H240-FA030/H240-FB083/L73-k0 (antibody)
chain 1: B1 chain 1 with K357M
chain 2: B1 chain 2 with G136E, E137S, S191N, L192F, I198T, N202D, K213T, E383N
chain 3: B1 chain 3
Consider B3, for which the Kd is 280 nM with FcgRIIa R; 1.2 nM with FcgRIIIa V; 82 nM in the assay with FcgRIIa H; 1500 nM with FcgRIIb; 0.081 nM with FcgRIa; 3.9 nM with FcgRIIIa F.

B4: H240-FA020/H240-FB082/L73-k0 (antibody)
chain 1: B1 chain 1 with K271E
chain 2: B1 chain 2
chain 3: B1 chain 3
Take B4: the Kd was determined as 270 nM with FcgRIIa R; 1.1 nM in the assay with FcgRIIIa V; 69 nM in the assay with FcgRIIa H; 1200 nM with FcgRIIb; 0.079 nM with FcgRIa; 3.4 nM with FcgRIIIa F.

B5: H240-FA009/H240-FB021/L73-k0 (antibody)
chain 1: B1 chain 1 with T198I, K271E, K357M
chain 2: B1 chain 2 with E137G, E146K, E383N
chain 3: B1 chain 3
For the molecule B5, the Kd worked out at 280 nM with FcgRIIa R; 0.78 nM with FcgRIIIa V; 70 nM with FcgRIIa H; 2200 nM in the assay with FcgRIIb; 0.051 nM in the assay with FcgRIa; 3.7 nM with FcgRIIIa F.

B6: H240-FA030/H240-FB065/L73-k0 (antibody)
chain 1: B1 chain 1 with K357M
chain 2: B1 chain 2 with G136E, E137S, E146K, S191N, L192F, I198T, N202D, K213T, E383N
chain 3: B1 chain 3
B6: the Kd in the assay with FcgRIIa R was 340 nM; with FcgRIIIa V, 1.1 nM; in the assay with FcgRIIa H, 99 nM; in the assay with FcgRIIb, 2400 nM; with FcgRIa, 0.1 nM; with FcgRIIIa F, 4.6 nM.

B7: H240-FA009/H240-FB052/L73-k0 (antibody)
chain 1: B1 chain 1 with T198I, K271E, K357M
chain 2: B1 chain 2 with E137G, E146K, K213T, E287K, E383N
chain 3: B1 chain 3
Turning to B7, the Kd with FcgRIIa R worked out at 270 nM; with FcgRIIIa V, 0.89 nM; with FcgRIIa H it was 72 nM; with FcgRIIb it was 1400 nM; with FcgRIa, 0.051 nM; in the assay with FcgRIIIa F, 4.3 nM.

B8: H240-FA009/H240-FB047/L73-k0 (antibody)
chain 1: B1 chain 1 with T198I, K271E, K357M
chain 2: B1 chain 2 with E137G, E146K, E287K
chain 3: B1 chain 3
Regarding B8, the Kd with FcgRIIa R was found to be 270 nM; with FcgRIIIa V it was 1.1 nM; in the assay with FcgRIIa H, 74 nM; in the assay with FcgRIIb it was 1700 nM; in the assay with FcgRIa, 0.05 nM; in the assay with FcgRIIIa F, 4.4 nM.

B9: H240-FA012/H240-FB001/L73-k0 (antibody)
chain 1: B1 chain 1 with T198I, K357M
chain 2: B1 chain 2 with E137G, E146K, E287K, E383N
chain 3: B1 chain 3
Take B9: the Kd turned out to be 350 nM with FcgRIIa R; 1.5 nM with FcgRIIIa V; 110 nM in the assay with FcgRIIa H; 1700 nM in the assay with FcgRIIb; 0.076 nM in the assay with FcgRIa; 6.3 nM with FcgRIIIa F.

B10: H240-FA009/H240-FB017/L73-k0 (antibody)
chain 1: B1 chain 1 with T198I, K271E, K357M
chain 2: B1 chain 2 with G136E, E137G, E146K, N202D, E287K, E383N
chain 3: B1 chain 3
For B10, the Kd in the assay with FcgRIIa R worked out at 230 nM; in the assay with FcgRIIIa V it was 0.84 nM; with FcgRIIa H, 61 nM; with FcgRIIb, 1400 nM; with FcgRIa, 0.11 nM; with FcgRIIIa F, 3 nM.

B11: H240-FA024/H240-FB059/L73-k0 (antibody)
chain 1: B1 chain 1
chain 2: B1 chain 2 with E383N
chain 3: B1 chain 3
Consider B11, for which the Kd with FcgRIIa R was found to be 290 nM; with FcgRIIIa V, 1.3 nM; with FcgRIIa H, 93 nM; with FcgRIIb it was 1600 nM; with FcgRIa, 0.089 nM; with FcgRIIIa F, 4.4 nM.

B12: H240-FA009/H240-FB033/L73-k0 (antibody)
chain 1: B1 chain 1 with T198I, K271E, K357M
chain 2: B1 chain 2 with E146K, E287K, E383N
chain 3: B1 chain 3
As to B12, the Kd with FcgRIIa R was 310 nM; with FcgRIIIa V it was 1 nM; with FcgRIIa H, 80 nM; in the assay with FcgRIIb, 1600 nM; with FcgRIa it was 0.12 nM; with FcgRIIIa F it was 3.4 nM.

B13: H240-FA021/H240-FB082/L73-k0 (antibody)
chain 1: B1 chain 1 with K271E, V396K
chain 2: B1 chain 2
chain 3: B1 chain 3
B13: the Kd in the assay with FcgRIIa R turned out to be 230 nM; with FcgRIIIa V, 1.5 nM; with FcgRIIa H, 77 nM; with FcgRIIb, 1600 nM; with FcgRIa, 0.06 nM; with FcgRIIIa F, 4.2 nM.

B14: H240-FA024/H240-FB065/L73-k0 (antibody)
chain 1: B1 chain 1
chain 2: B1 chain 2 with G136E, E137S, E146K, S191N, L192F, I198T, N202D, K213T, E383N
chain 3: B1 chain 3
B14: the Kd in the assay with FcgRIIa R stood at 300 nM; with FcgRIIIa V, 1.4 nM; with FcgRIIa H, 95 nM; in the assay with FcgRIIb, 1700 nM; with FcgRIa it was 0.15 nM; in the assay with FcgRIIIa F, 5 nM.

B15: H240-FA012/H240-FB056/L73-k0 (antibody)
chain 1: B1 chain 1 with T198I, K357M
chain 2: B1 chain 2 with G136E, E137G, N202D, E383N
chain 3: B1 chain 3
Turning to B15, the Kd with FcgRIIa R was 280 nM; with FcgRIIIa V, 1.3 nM; with FcgRIIa H it was 86 nM; with FcgRIIb, 1400 nM; with FcgRIa, 0.1 nM; with FcgRIIIa F, 5 nM.
